Reference: patent publication US10414821

Columns and labels:
PD-1 [1] = biological target: PD-1 (UniProt Q15116); assay: blocking ELISA (PD-1/PD-L1)
Target sequence in this assay (Q15116 25-167): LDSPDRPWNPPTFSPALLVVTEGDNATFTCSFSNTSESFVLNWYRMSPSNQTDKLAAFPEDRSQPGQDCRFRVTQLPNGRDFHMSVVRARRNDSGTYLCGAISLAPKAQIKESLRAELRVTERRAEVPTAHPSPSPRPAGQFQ

PD-1 [2] = biological target: PD-1 (UniProt Q15116); assay: ELISA
Target sequence in this assay (Q15116 25-170): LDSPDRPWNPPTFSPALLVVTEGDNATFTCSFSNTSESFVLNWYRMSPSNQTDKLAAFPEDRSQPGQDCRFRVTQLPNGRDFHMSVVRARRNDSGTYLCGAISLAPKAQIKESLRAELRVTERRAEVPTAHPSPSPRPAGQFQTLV

IC50 (PD-1 [1]) [pM] | EC50 (PD-1 [2]) [pM] | Substance
603 |  | MK-3475
 | 80 | MK3475
